Ends that are not written are not given here. * marks the point of attachment. Biotin = O=C1N[C@H]2[C@H](CS[C@H]2CCCCC(=O)*)N1
T1: GST-PTN-4 PDZ domain fusion protein (Homo sapiens (Human), UniProt P29074 517-605)
T1 construct: also called protein-tyrosine phosphatase meg1; not shown: glutathione S-transferase (GST) encoded by pGEX-3X
T1 sequence: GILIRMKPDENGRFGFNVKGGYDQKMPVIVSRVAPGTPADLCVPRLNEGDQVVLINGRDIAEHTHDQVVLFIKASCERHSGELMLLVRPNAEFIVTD

T2: GST-LIMK2 PDZ domain fusion protein (human, UniProt P53671 147-237)
T2 construct: also called human LIM domain kinase 2; not shown: glutathione S-transferase (GST) encoded by pGEX-3X
T2 sequence: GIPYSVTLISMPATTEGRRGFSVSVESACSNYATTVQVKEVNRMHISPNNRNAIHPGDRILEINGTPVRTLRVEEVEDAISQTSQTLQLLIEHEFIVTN

T3: GST-TAX33 PDZ domain fusion protein (Homo sapiens (Human), UniProt O14910 103-194)
T3 construct: not shown: glutathione S-transferase (GST) encoded by pGEX-3X
T3 sequence: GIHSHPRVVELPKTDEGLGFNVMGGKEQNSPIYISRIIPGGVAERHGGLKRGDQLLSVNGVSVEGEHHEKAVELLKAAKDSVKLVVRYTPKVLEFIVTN

T4: GST-AF6 PDZ domain fusion protein (Homo sapiens (Human), UniProt P55196 1001-1093)
T4 construct: also called af-6 protein; not shown: glutathione S-transferase (GST) encoded by pGEX-3X
T4 sequence: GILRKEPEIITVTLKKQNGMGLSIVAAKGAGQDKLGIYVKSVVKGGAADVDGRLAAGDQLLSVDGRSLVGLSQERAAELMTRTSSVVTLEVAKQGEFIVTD

T5: GST-MPP2 PDZ domain fusion protein
T5 construct: also called maguk p55 subfamily member 2 (DLG2); MMP2; not shown: glutathione S-transferase (GST) encoded by pGEX-3X
T5 chain: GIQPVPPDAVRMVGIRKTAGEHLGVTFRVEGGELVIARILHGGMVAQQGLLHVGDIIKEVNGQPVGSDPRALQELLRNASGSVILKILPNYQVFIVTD

T6: GST-41.8 kD (hypothetical 41.8 kD protein) PDZ domain fusion protein (Mus musculus (Mouse), UniProt Q9EQZ7 682-763)
T6 construct: not shown: glutathione S-transferase (GST) encoded by pGEX-3X
T6 sequence: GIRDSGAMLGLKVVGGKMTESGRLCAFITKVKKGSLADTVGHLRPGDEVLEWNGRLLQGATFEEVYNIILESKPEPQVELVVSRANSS

T7: GST-CASK PDZ domain fusion protein (mouse, UniProt O14936 485-575 (human entry))
T7 sequence: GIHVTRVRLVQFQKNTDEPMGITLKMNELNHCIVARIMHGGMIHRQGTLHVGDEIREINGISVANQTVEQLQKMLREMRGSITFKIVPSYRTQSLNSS

T8: GST-RGS12 PDZ domain fusion protein (human, UniProt O14924 17-85)
T8 construct: also called human regulator of G-protein signalling 12; not shown: glutathione S-transferase (GST) encoded by pGEX-3X
T8 sequence: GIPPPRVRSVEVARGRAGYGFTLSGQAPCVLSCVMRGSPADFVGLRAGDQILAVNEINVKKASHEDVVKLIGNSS

T9: GST-MINT3 PDZ domain fusion protein (human)
T9 construct: also called human MINT3; not shown: glutathione S-transferase (GST) encoded by pGEX-3X
T9 chain: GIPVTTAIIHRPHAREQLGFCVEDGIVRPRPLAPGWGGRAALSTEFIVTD

T10: GST-KIAA0303 PDZ domain fusion protein (Homo sapiens (Human), UniProt O15021 1138-1229)
T10 construct: also called K303; not shown: glutathione S-transferase (GST) encoded by pGEX-3X
T10 sequence: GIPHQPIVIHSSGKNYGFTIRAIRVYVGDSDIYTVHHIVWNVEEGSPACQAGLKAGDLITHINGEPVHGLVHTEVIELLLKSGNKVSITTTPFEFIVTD

T11: GST-SYN1a (alpha1-syntrophin) PDZ domain fusion protein (Homo sapiens (Human), UniProt Q13424 84-179)
T11 construct: also called SYN 1 α; not shown: glutathione S-transferase (GST) encoded by pGEX-3X
T11 sequence: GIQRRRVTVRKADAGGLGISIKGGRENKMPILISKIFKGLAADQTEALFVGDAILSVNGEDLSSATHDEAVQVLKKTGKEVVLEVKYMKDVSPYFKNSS

T12: GST-KIAA0559 PDZ domain fusion protein (Homo sapiens (Human), UniProt Q9Y6V0 4489-4594)
T12 construct: also called K559; not shown: glutathione S-transferase (GST) encoded by pGEX-3X
T12 sequence: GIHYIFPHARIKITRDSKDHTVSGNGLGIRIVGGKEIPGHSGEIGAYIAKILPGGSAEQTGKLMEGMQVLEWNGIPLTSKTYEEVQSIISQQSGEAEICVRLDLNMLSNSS

T13: GST-CBP (Cytohesin binding protein HE) PDZ domain fusion protein (Homo sapiens (Human), UniProt O60759 74-165)
T13 construct: not shown: glutathione S-transferase (GST) encoded by pGEX-3X
T13 sequence: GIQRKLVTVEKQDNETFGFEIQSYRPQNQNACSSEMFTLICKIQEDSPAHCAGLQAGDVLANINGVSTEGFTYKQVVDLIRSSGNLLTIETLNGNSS


Key:
Assay in all cases: A/G assays
[1] = molecular target: T1, GST-PTN-4 PDZ domain fusion protein
[2] = molecular target: T2, GST-LIMK2 PDZ domain fusion protein
[3] = molecular target: T3, GST-TAX33 PDZ domain fusion protein
[4] = molecular target: T4, GST-AF6 PDZ domain fusion protein
[5] = molecular target: T5, GST-MPP2 PDZ domain fusion protein
[6] = molecular target: T14, GST-NOS1 PDZ domain fusion protein (human, UniProt P29475 11-101)
T14 construct: also called human neuronal nitric oxide synthase; not shown: glutathione S-transferase (GST) encoded by pGEX-3X

[7] = molecular target: T6, GST-41.8 kD (hypothetical 41.8 kD …)
[8] = molecular target: T7, GST-CASK PDZ domain fusion protein
[9] = molecular target: T15, GST-KIAA0316 PDZ domain fusion protein (Homo sapiens (Human), UniProt Q14CM0 72-159)
T15 construct: also called K316; not shown: glutathione S-transferase (GST) encoded by pGEX-3X

[10] = molecular target: T8, GST-RGS12 PDZ domain fusion protein
[11] = molecular target: T9, GST-MINT3 PDZ domain fusion protein
[12] = molecular target: T10, GST-KIAA0303 PDZ domain fusion protein
[13] = molecular target: T11, GST-SYN1a (alpha1-syntrophin) PDZ …
[14] = molecular target: T16, GST-TIAM1 PDZ domain fusion protein (Homo sapiens (Human), UniProt Q13009 845-932)
T16 construct: also called T-lymphoma invasion and metastasis inducing protein 1; not shown: glutathione S-transferase (GST) encoded by pGEX-3X

[15] = molecular target: T12, GST-KIAA0559 PDZ domain fusion protein
[16] = molecular target: T13, GST-CBP (Cytohesin binding protein HE) …

T15 sequence (Q14CM0 other isoform, or with tags, fused parts or gaps): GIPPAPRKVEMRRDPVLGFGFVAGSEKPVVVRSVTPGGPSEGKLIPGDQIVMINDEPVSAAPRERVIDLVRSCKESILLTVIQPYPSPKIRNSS
T16 sequence (Q13009 other isoform, or with tags, fused parts or gaps): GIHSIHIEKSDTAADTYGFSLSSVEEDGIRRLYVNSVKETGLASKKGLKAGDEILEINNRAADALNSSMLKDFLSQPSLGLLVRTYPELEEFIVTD
T14 sequence (P29475 other isoform, or with tags, fused parts or gaps): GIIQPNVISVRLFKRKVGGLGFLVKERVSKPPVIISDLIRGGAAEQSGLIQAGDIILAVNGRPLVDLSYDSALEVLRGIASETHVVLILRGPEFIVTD

binding result [1] | binding result [2] | binding result [3] | binding result [4] | binding result [5] | binding result [6] | binding result [7] | binding result [8] | binding result [9] | binding result [10] | binding result [11] | binding result [12] | binding result [13] | binding result [14] | binding result [15] | binding result [16] | Binder
no binding | no binding | no binding | no binding | no binding | no binding | no binding | no binding | no binding | no binding | no binding | no binding | no binding | no binding | no binding | no binding | Biotin-QATSRNGHSARQHVVADTEL [CD34 C-terminal peptide AA7L]
no binding | no binding | no binding | no binding | no binding | no binding | no binding | no binding | no binding | no binding | no binding | no binding | no binding | no binding | no binding | no binding | Biotin-TIYENLAPVTTFGKTIA [CD148 peptide AA55L (ending KTIA)]
